The nanobody polyreactivity screen of Harvey et al. (2022)

Experiment: yeast display, Sf9 membrane polyspecificity reagent, FACS + sequencing; frameworks hold sequencing errors
In short: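 A synthetic nanobody library was expressed on Saccharomyces cerevisiae BJ5465 by galactose induction for 36–48 hours. The library was stained for 1 hour at 4 °C with 10% biotinylated, detergent-solubilized Sf9 membrane reagent and enriched with streptavidin microbeads before FACS. Low and high (top ~1%) gates were set on anti-HA fluorescence for expression and streptavidin fluorescence for reagent binding, and each polyreactivity label reflects the gate of origin.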

Sequence	polyreactivity (PSR sort gate)
QVQLVESGGGLVQAGGSLRLSCAASGRTFRDNAMGWYRQAPGKDRELVAAIDIDSSTYYADSVEGRFTISRDNAKNTVYLQMNSLKPEDTAVYYCAAESYHDGKGFPDYEYWGQGTQVTVSS	low polyreactivity
QVQLVESGGGLVQAGGSLRLSCAASGRTFRDYAMGWYRQEPGKESELVAAITWIGGTTYYADSVKGRFTISRDNAKNTVYLQMNSLKPEDTAVYYCAKKRYHWYGRYYYWGQGTQVTVSS	high polyreactivity
QVQLVESGGGLVQAGGSLRLSCAASGRTFRFDAMGWYRQAPGKEREFVAAISRSVGSTYYADSVKGRFTISRDNAKTTVYLQMNSLKPEDTAVYYCNGDYRSRYVEYDYWGQGTQVTVSS	high polyreactivity
QVQLVESGGGLVQAGGSLRLSCAASGRTFRFNAMGWYRPAPGKERELVAAIRWSGSSTYYADSVKGRFTISRDNAKNTVYLQMNSLKPEDTAVYYSAKRVKTTWFGYWGQGTQVTVSS	high polyreactivity
QVQLVESGGGLVQAGGSLRLSCAASGRTFRFNAMGWYRQAPGKERELVAAISSGGNTYYADSVKGRFTISRDNAKNTVYLQMNSLKPEDTAVYYCNTVYLYGTHDYWGQGTQVTVSS	low polyreactivity
QVQLVESGGGLVQAGGSLRLSCAASGRTFRFYAMGWSRQAPGKEREMVAAISYSGGSTYYADSVKGRFTISRDNAKNTVYLQMNSLKPEDTAVYYCAAPYYRSTTSYDYWGQGTQVTVSS	high polyreactivity
QVQLVESGGGLVQAGGSLRLSCAASGRTFRFYAMGWYRQAPGKERELVAAISWNGGRTYYADSVKGRFTISRDNAKNTVYLQMNSLKPEDTAFYYCAKDRGGPFYWRYPLGYWGQGTQVTVSS	high polyreactivity
QVQLVESGGGLVQAGGSLRLSCAASGRTFRFYAMGWYRQAPGKERELVAAITYRGGTYYADSVKGRFTISRDNAKNTVYLQMNSLKPEDTAVYYCAVKPSGWSGMDYWGQGTQVTVSS	high polyreactivity
QVQLVESGGGLVQAGGSLRLSCAASGRTFRGNAMGWDRQAPVKERELVAAITWGVGSTYYADSVKGRFTISRDNAKNTVYLQMNSLKPEDTAVYYCATRSYRGRDGFGYWGQGTQVTVSS	high polyreactivity
QVQLVESGGGLVQAGGSLRLSCAASGRTFRGNAMGWNRQTHGKERELVAAISWSGGRTYYADSVKGRFTISRDNAKNSVYLQMNSLKPEDTAVYDCAAVVPKYGQAGYDYWGQGTQVSVSS	high polyreactivity
QVQLVESGGGLVQAGGSLRLSCAASGRTFRGNAMGWYRPAPGKERELVAAITTAGGTYYADSVKGRFTISRDNAKNTVYLQMNSLKPEDTAVYYCAKLSHRGQSTGVDYWGQGTQVTVSS	low polyreactivity
QVQLVESGGGLVQAGGSLRLSCAASGRTFRGNAMGWYRQAPGKERELVAAISRRGVSTYYADSVKGRFTISRDNAKNTVYLQMNSLKPEDTAVYYCAVVVYQGFRSKYYYWGQGTQVTVSS	high polyreactivity
QVQLVESGGGLVQAGGSLRLSCAASGRTFRGNTMGWYRQAPGKERELVAAISRGGSTNYADSVKGRFTISRDNTKNTVYLQMNSLTPEDTAVYYCAKDRYVRWGRTFEFDYWGQGTQVTVSS	low polyreactivity
QVQLVESGGGLVQAGGSLRLSCAASGRTFRGYAMGWYRQAPGKERELVAGITQRGGTTYYADSVKGRFTISRDNAKNTVYLQMNSLKPEDSAVYYCAAAFGRVTKYGYRNQYGYWGHGTQVTVSS	high polyreactivity
QVQLVESGGGLVQAGGSLRLSCAASGRTFRINAMGWYRQAPGKERELVAAINDGGDTYADSVKGRFTISRDNAKNTVYLQMNSLKPEDTAVYYCAVRILTNRWYYGYWGQGTQVTVSS	low polyreactivity
QVQLVESGGGLVQAGGSLRLSCAASGRTFRINAMGWYRQAPGKERELVAAITRGDTNYADSVKGRFTISRDNAKNTVYLQMNSLKPEDTAVYYCNAELSFRYPVFRELDYWGQGTQVTVSS	low polyreactivity
QVQLVESGGGLVQAGGSLRLSCAASGRTFRINAMGWYRQAPGKERELVAAITSGGRTNYADSVKGRFTISRDNAKNTVYLQMNSLKPEDTAVYYCAADTTHWYYLGYGYWGQGTQVTVSS	low polyreactivity
QVQLVESGGGLVQAGGSLRLSCAASGRTFRINAMGWYRQAPGKEREMVAAIRSRAGSTYYADSVKGRFTISRDNAKNTVYLQMYSLKPEDTAVYYCAAKFPFDVDYWGQGTQVTVSS	high polyreactivity
QVQLVESGGGLVQAGGSLRLSCAASGRTFRINTMGWYRQAPGKERELVATITGSGGSTYYADSVKGRFTISRDNANNTVYLQMNSLKPEDTAVYYCAAFGDQNEYDYWGQGTQVTVSS	low polyreactivity
QVQLVESGGGLVQAGGSLRLSCAASGRTFRKNAMGWYRQAPGKERELVAAISDTGGSTYYADSVKGRFTISRDNAKNTVYFQMNSLKTEDTAVYYCAATVRYRGFYYWGQGTQVTVSS	high polyreactivity
QVQLVESGGGLVQAGGSLRLSCAASGRTFRKYAMGWYRQAPGKERELVAAINKSGGTTYYADSVKGRFTISRDNAKNTVYLQMNSLNPEDTAVYYCAADFYYYSYHSGQAPYDYWGQGTQVTVSS	high polyreactivity
QVQLVESGGGLVQAGGSLRLSCAASGRTFRKYAMGWYRQAPGKERELVAAITTSGARTYYADSVKGRFTISRDNAKNTVYLQMNSLKPEDTAVYYCNAVIPYYGIEFDYWGQGTQVTVSS	high polyreactivity

Sequence	polyreactivity (PSR sort gate)
QVQLVESGGGLVQAGGSLRLSCAASGRTFRLYAMGWYIQAPGKERELVAAISSTGSTYYADSVKGRFTISLDNAKNTVYLQMNSLKPEDTAVYYCNAKLPVTSLKFDYYYWGQGSQVTVSS	high polyreactivity
QVQLVESGGGLVQAGGSLRLSCAASGRTFRLYAMGWYRQAPGKERELVAAIDGNGGSTYYADSVKGRFTISRDNAKNTVYLQMNSLKPEDTAVYYCAVSVSVYLDYRRDHQRGYDYWGQGTQVTVSS	low polyreactivity
QVQLVESGGGLVQAGGSLRLSCAASGRTFRLYAMGWYRQAPGKERELVAAISWRGGSTYYADSVKGRFTISRDNAKNTVYLQMNSLKPEDTAVYYCAAGTSRHLSNGYYYWGQGTQVTVSS	high polyreactivity
QVQLVESGGGLVQAGGSLRLSCAASGRTFRLYAMGWYRQAPGKERELVAAITRGGRTNYADSVKGRFTISRDNAKNTVYLQMNSLKPEDTAVYYCATDLVGAGVKGVRFVGRYRGDYWGQGTQVTVSS	low polyreactivity
QVQLVESGGGLVQAGGSLRLSCAASGRTFRLYAMGWYRQAPGKERQLVAAIDGNGGSTYYADSVKGRFTISRDNAKNTVYLQMNSLKPEDTAVYYCAVSVSVYLDYRRDHQRGYDYWGQGTQVTVSS	low polyreactivity
QVQLVESGGGLVQAGGSLRLSCAASGRTFRNNAMGWYRQAPGKEREFVAVISNTGGSTYYADSVKGRFTISRDNAKNTVYLQMNSLKPEDTAVYYCAVRPRYSQYYYWGQGTQVTVSS	high polyreactivity
QVQLVESGGGLVQAGGSLRLSCAASGRTFRNNAMGWYRQAPGKERELVAAISSRGGSTYYADSVKGRFTISRDNAKNTVYLQMNSLKPEDTAVYYCADDHSRYGDYWGQGTQVTVSS	high polyreactivity
QVQLVESGGGLVQAGGSLRLSCAASGRTFRNYAMGWYRQAPAKERELVAAITWSGGSTYYADSVKGRFTISRDNSKNTVYLQMYSLKPEDTAVYYCNVRSYTRTYNYWGQGTQVTVSS	high polyreactivity
QVQLVESGGGLVQAGGSLRLSCAASGRTFRNYAMGWYRQAPGKERELVAGITYSGGSTFYADSVKGRFTISRDNAKNTVYLQMNSLKPEDAAVYYCAAVYVPYYWLGRSRGLDYWGQGTQVTVSS	high polyreactivity
QVQLVESGGGLVQAGGSLRLSCAASGRTFRPNAMGWYRQAPGKERELVAAISRRGGSTNYADSVKGRFTISRDNAKNTVYLQMNSLKPEDTAVYYCNSRGRRGYDYWGQGTQVTVSS	high polyreactivity
QVQLVESGGGLVQAGGSLRLSCAASGRTFRRNAMGWYRQAPGKERELVASINRGGGTNYADSVKGRFTISRDNAKNTVYLQMNSLKPEDTAVYYCAAGPGTYWGYDYWGQGTQVTVSS	low polyreactivity
QVQLVESGGGLVQAGGSLRLSCAASGRTFRRNAMGWYRQAPGQERELVAGIRKRGGSTYYADSVKGRFTISRDNAKNTVYLQMNSLKPQDTAVYYCAAQPALTYRFYYWGQGTQVTVSS	high polyreactivity
QVQLVESGGGLVQAGGSLRLSCAASGRTFRRYAMGWYRQAPGKERELVAAISGDGSTHYADSVKGRFTISRDNAKNTVYLQMNSLKPEDTAVYYCAADYTDWYYVNYPAAPYRYDYWGQGTQVTVSS	high polyreactivity
QVQLVESGGGLVQAGGSLRLSCAASGRTFRRYAMGWYRQAPGKERELVAAISSSTGRTYYADSVKGRFTISRDTAKNTVYLQMNSLKPEDTAVYYCNAVHRYERDYWGQGTQVTVSS	high polyreactivity
QVQLVESGGGLVQAGGSLRLSCAASGRTFRRYVMGWYRQAPGKERELGAAITGSGGSTYYADSVKGRFTISRDNAKNTVYLQMNSLKPEDTAVYYCAADGICFYRSYGYDYWGQGTQVNVSS	high polyreactivity
QVQLVESGGGLVQAGGSLRLSCAASGRTFRRYVMGWYRQAPGKERELVASITRGTGTDYADSVKGRFTISRDNAKNTVYLQMNSLKPEDTAVYYCNAEVKGFFYDYDYWGQGTQVTVSS	low polyreactivity
QVQLVESGGGLVQAGGSLRLSCAASGRTFRSNAMGWYRQAPGKEREFVAAISGRGGITYYADSVKGRFTISRDNAKNTVYLQMNSLKPEDTAVYYCNADYWQAGDYLYYFVYYGGYDYWGQGTQVTVSS	low polyreactivity
QVQLVESGGGLVQAGGSLRLSCAASGRTFRSNAMGWYRQAPGKERELVAAITASGGNTYYADSVKGRFTISRDNAKNTVYLQMNSLKPEDTAVYYCAAVSRYNYGTNPYYYWGQGTQVNVSS	high polyreactivity
QVQLVESGGGLVQAGGSLRLSCAASGRTFRSNAMGWYRQAPGKERELVATISGRGGSTYYADSVKGRFTISRDNAKNTVYLQMNSLKPEDTAVYYCNAYSVRLSGAELNYWGQGTQVTVSS	high polyreactivity
QVQLVESGGGLVQAGGSLRLSCAASGRTFRSNAMGWYRQAPGKERELVATISRRGVSTYYADSVKGRFTISRDNAKNTVYLLMNSLKPEYTAVYYCTLNVGTTSRWSYDYWGQGNQVTVSS	high polyreactivity
QVQLVESGGGLVQAGGSLRLSCAASGRTFRSYAMGWYRQAPGKERELVAAINTNGGSTYYADSVKGRFTISRDNAKNTVYLQMNSLKPEDTAVYYCRAWAQNQFNYWGQGTQVTVSS	high polyreactivity
